Assay results as given in paper PMC3127458 (Biochemistry, 2010).

Target: the molecule itself
Experiment: SEC

| Protein | stoichiometry N |
| --- | --- |
| AppA Q63E full-length (natural protein, Rhodobacter sphaeroides, UniProt Q53119 1-450, looked up) MQHDLEADVTMTGSDLVSCCYRSLAAPDLTLRDLLDIVETSQAHNARAQLTGALFYSQGVFFEWLEGRPAAVAEVMTHIQRDRRHSNVEILAEEPIAKRRFAGWHMQLSCSEADMRSLGLAESRQIVTVGRSLVADNTNIFSFDRIAAVRRFLSDVCAARTLAPDTPVEADTFALYALTEAQAGRSGRAKAVARLSDLLSTDPLGRLTEVEELLRAHAPTAADFARLFEACAERLTRALAEDRISRMQVTLAYSALQMALRRIHHLPDPQKSVGAVLVAGVPGHKPILEAALAAEMLRAVGWSTSVVHPESVAALAARLKTSRTSTLVVAPSLLEGTEQEADTLRFVSALRARTDLPGLSILVGGRLAQLPPSKLKDSGADAGFAHLALLPAALARVACPANADCCSMRACRMPASQCCDKRINPEFLLANVMPSVLTRISSRQDRRRSA | 2 |
| AppA Q63L full-length (natural protein, Rhodobacter sphaeroides, UniProt Q53119 1-450, looked up) MQHDLEADVTMTGSDLVSCCYRSLAAPDLTLRDLLDIVETSQAHNARAQLTGALFYSQGVFFLWLEGRPAAVAEVMTHIQRDRRHSNVEILAEEPIAKRRFAGWHMQLSCSEADMRSLGLAESRQIVTVGRSLVADNTNIFSFDRIAAVRRFLSDVCAARTLAPDTPVEADTFALYALTEAQAGRSGRAKAVARLSDLLSTDPLGRLTEVEELLRAHAPTAADFARLFEACAERLTRALAEDRISRMQVTLAYSALQMALRRIHHLPDPQKSVGAVLVAGVPGHKPILEAALAAEMLRAVGWSTSVVHPESVAALAARLKTSRTSTLVVAPSLLEGTEQEADTLRFVSALRARTDLPGLSILVGGRLAQLPPSKLKDSGADAGFAHLALLPAALARVACPANADCCSMRACRMPASQCCDKRINPEFLLANVMPSVLTRISSRQDRRRSA | 2 |
